The target in one experiment is S100A2. As to the kind of experiment: FP.
For experiment [1], the target named is S100A4. As to the kind of experiment: FP.
Experiment [2] deals with S100A4. As to the kind of experiment: ITC. On the technique in general: ITC needs no label: the signal is the heat of the interaction.
For another experiment, the target named is S100A7. Briefly: FP.
The target of the next experiment is S100A3. As to the kind of experiment: FP.
A further experiment deals with S100P. Briefly: FP.
The target in the next experiment is S100A1. As to the kind of experiment: FP.
The target of the next experiment is S100A15. Briefly: FP.
The target in another experiment is S100G. Briefly: FP.
The target of another experiment is S100A5. Briefly: FP.
The next experiment addresses S100A6. Briefly: FP.
The next experiment has as its target S100A14. As to the kind of experiment: FP.
Experiment [3] deals with C-ERMAD (516-560 and 516-586) peptide (UniProt P15311). Briefly: FP.
Sequence of C-ERMAD (516-560 and 516-586) peptide (UniProt P15311) (P15311 516-586): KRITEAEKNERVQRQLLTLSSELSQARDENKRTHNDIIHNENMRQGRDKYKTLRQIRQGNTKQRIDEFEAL
The next experiment addresses S100A11. Briefly: FP.

Sequence of C-ERMAD (516-560 and 516-586) peptide (from UniProt P15311 516-586) (P15311 516-586): as above
Sequence of p53 (1-60; 17-53) peptide (P04637 1-60): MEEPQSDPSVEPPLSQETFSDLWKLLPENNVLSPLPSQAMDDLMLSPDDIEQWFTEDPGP

For the substance “C-ERMAD (516-560 and 516-586) peptide (from UniProt P15311 516-586)”, the dissociation constant (Kd) with S100A2 came to 5.4 µM; with S100A4 [1] it was 6.1 µM; with S100A4 [2], 35 µM.
Turning to FOR20, the Kd with S100A7 turned out to be 5.9 µM; with S100A3 it was 29 µM; in the experiment with S100P it was 1.2 µM; in the experiment with S100A1, 0.5 µM; in the experiment with S100A15, 17 µM; with S100G it was 3.8 µM. Further, the Kd with S100A2 worked out at 0.27 µM; with S100A4 [1] it was 2 µM; with S100A5 it was 1.9 µM; in the experiment with S100A6 it was 0.007 µM; with S100A14 it was 63 µM.
For MK2, the results for the Kd with S100P, with S100A1 and in the experiment with S100A2 were 2.7 µM, 15 µM and 4.5 µM, respectively.
In the case of MNK1, the Kd in the experiment with S100P was determined as 2.5 µM; in the experiment with S100A2 it was 18 µM; in the experiment with S100A4 [1], 24 µM; with S100A6 it was 6.7 µM.
S100A2 yielded a Kd in experiment [3] of 15 µM.
Still for that read-out and setting: in the case of S100A4 it was 11 µM.
With “p53 (1-60; 17-53) peptide (from UniProt P04637 1-60)”, the Kd with S100A11 came to 12 µM; with S100A3 it was 7.7 µM; with S100A2 it was 5.2 µM; in the experiment with S100A4 [1] it was 2.1 µM; with S100A5, 67 µM; with S100A6 it was 2.2 µM.

Usually Kd stands for the equilibrium constant for the complex coming apart.

The values are drawn from article doi:10.1101/718155.
